B1: region 2 mutant 4 (dsDNA)
DNA 1: AATCCCGCCCGGCGCATCAGG
DNA 2: CCTGATGCGCCGGGCGGGATT
B2: region 2 mutant 2 (dsDNA)
DNA 1: AATCCATCCCGGCACCTCAGG
DNA 2: CCTGAGGTGCCGGGATGGATT
B3: region 2 mutant 1 (dsDNA)
DNA 1: AATCCCACCCGGCACCTCAGG
DNA 2: CCTGAGGTGCCGGGTGGGATT
B4: Skp2 promoter region 1 (dsDNA)
DNA 1: GCTCCGGGAAAA
DNA 2: TTTTCCCGGAGC
B5: Skp2 promoter region 3 (dsDNA)
DNA 1: AGAGCGGGATGCAGAACTCCGCGCGCGCGGTGG
DNA 2: CCACCGCGCGCGCGGAGTTCTGCATCCCGCTCT
B6: Skp2 promoter region 2 (dsDNA)
DNA 1: AATCCCGCCCGGCGCCGCAGG
DNA 2: CCTGCGGCGCCGGGCGGGATT
B7: region 3 mutant (dsDNA)
DNA 1: AGAGCATGCAGAACTCCGCACGAGCGGTGG
DNA 2: CCACCGCTCGTGCGGAGTTCTGCATGCTCT
B8: Skp2 promoter region 4 (dsDNA)
DNA 1: AGTTCGCGGGTCC
DNA 2: GGACCCGCGAACT
B9: region 2 mutant 3 (dsDNA)
DNA 1: AATCCCGCCCGGATCCGCAGG
DNA 2: CCTGCGGATCCGGGCGGGATT

How the values were obtained:
Details in all cases: tags: baculovirus-expressed
[1] = molecular target: T1, E2F-1/DP1 heterodimer (UniProt Q01094;Q14186 Q01094:1-437,Q14186:1-410); test: EMSA; stated as similar results to first mutation
[2] = molecular target: T1, E2F-1/DP1 heterodimer; test: EMSA; mutation abolishes binding; promoter activity reduced at least 2-fold but not activation by E2F-1
[3] = molecular target: T1, E2F-1/DP1 heterodimer; test: EMSA
[4] = molecular target: T1, E2F-1/DP1 heterodimer; test: EMSA; mutation abolished E2F-1 binding; promoter activity reduced about 2-fold and E2F-1 activation suppressed

T1 sequence (Q01094 whole entry, chain 1 of 2): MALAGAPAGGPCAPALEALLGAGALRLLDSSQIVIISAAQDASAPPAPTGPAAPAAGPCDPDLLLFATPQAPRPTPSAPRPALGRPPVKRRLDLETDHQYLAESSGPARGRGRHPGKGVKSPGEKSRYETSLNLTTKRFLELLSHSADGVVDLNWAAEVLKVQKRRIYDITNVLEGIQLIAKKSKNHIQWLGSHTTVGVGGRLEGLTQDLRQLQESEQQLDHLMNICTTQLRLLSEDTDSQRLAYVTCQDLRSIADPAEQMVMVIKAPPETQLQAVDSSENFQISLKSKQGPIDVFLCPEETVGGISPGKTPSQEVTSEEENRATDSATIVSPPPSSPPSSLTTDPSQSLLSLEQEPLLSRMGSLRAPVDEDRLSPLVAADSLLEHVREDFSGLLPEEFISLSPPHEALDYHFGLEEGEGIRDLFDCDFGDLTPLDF
T1 sequence (Q14186 whole entry, chain 2 of 2): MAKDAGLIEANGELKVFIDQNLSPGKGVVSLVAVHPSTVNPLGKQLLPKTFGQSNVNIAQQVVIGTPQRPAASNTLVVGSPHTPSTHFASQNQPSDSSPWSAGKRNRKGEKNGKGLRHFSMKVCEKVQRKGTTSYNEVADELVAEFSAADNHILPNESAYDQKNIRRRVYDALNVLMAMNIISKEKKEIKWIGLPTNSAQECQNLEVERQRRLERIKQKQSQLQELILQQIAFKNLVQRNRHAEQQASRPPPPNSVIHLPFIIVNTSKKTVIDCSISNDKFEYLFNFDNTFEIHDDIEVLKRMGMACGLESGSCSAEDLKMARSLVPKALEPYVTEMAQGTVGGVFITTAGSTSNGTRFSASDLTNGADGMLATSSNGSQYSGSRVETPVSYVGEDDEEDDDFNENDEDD

Row | Binder | binding result [1] | binding result [3] | further results
1 | B1 | no binding |  | 
2 | B2 | no binding |  | 
3 | B3 |  |  | binding result [2]: no binding
4 | B4 |  | no binding | 
5 | B5 |  | binds | 
6 | B6 |  | binds | 
7 | B7 |  |  | binding result [4]: no binding
8 | B8 |  | binds | 
9 | B9 | no binding |  | 
